Experimental data reported in patent US20230392122A1, “LONG-TERM AND FUNCTIONAL CULTURE OF HEPATIC ORGANOIDS (eHEPO) DERIVED FROM EPCAM+ ENDODERMAL PROGENITOR CELLS DIFFERENTIATED FROM INDUCED PLURIPOTENT STEM CELLS” (DOKUZ EYLUL UNIVERSITESI REKTORLUGU, priority 2020, published 2023).
Entries after “also recorded” stand apart in the source; their conditions may differ.

System: IPSC-derived endoderm cells
Assay: Endoderm differentiation of IPSCs with R-spo1 added, flow cytometry for EpCAM
Assay type: cell-based, human
Settings: 5 ng/ml R-spo1 added to endoderm medium
Protocol: To start with, IPSCs were differentiated into definitive endoderms in a medium containing 100 ng/mL Activin A, 50 ng/mL Wnt3a, and 5 ng/mL R-spo1factors for 5 days (FIG. 1A). During the definitive endoderm development stage, the parenchymal cells of the liver derive from a specific germ layer. […] In particular, it is evident that following independent differentiations, the percentage of CXCR4+/EpCAM+ endodermal cells derived from three independent IPSC lines (WT1, WT2 and WT3) is not too different from one another, and that the endodermal induction step of the protocol can be repeated (FIG. 1B). At this point of the assay, the differentiation medium was modified to obtain more EpCAM+ endoderm cells. Wnt signalling pathway agonist and 5 ng/ml R-spo1, which is known to play a significant role in stem cell growth, were added to the endoderm medium. […] As a result, this protocol enables IPSCs to differentiate into more EpCAM+endoderm cells in two-dimensional mediums.

B1: R-spo1: Wnt signalling pathway agonist known to play a significant role in stem cell growth, added to the endoderm medium (protein, UniProt Q2MKA7 21-263, looked up)
R-spondin-1: SRGIKGKRQRRISAEGSQACAKGCELCSEVNGCLKCSPKLFILLERNDIRQVGVCLPSCPPGYFDARNPDMNKCIKCKIEHCEACFSHNFCTKCKEGLYLHKGRCYPACPEGSSAANGTMECSSPAQCEMSEWSPWGPCSKKQQLCGFRRGSEERTRRVLHAPVGDHAACSDTKETRRCTVRRVPCPEGQKRRKGGQGRRENANRNLARKESKEAGAGSRRRKGQQQQQQQGTVGPLTSAGPA
- morphology of the cells (DIC images): not affected negatively
- EpCAM ratio / number of EpCAM (+) cells (flow cytometry, three healthy IPSCs): causes an increase in the number of EpCAM (+) cells; also recorded: increases the EpCAM ratio considerably
